Reference: PMC10999177, “miR‐1246 promotes osteosarcoma cell migration via NamiRNA‐enhancer network dependent on Argonaute 2”

Biological target: hAGO2 (Homo sapiens, UniProt Q9UKV8 1-859)
Assay: EMSA; 20 nM probe, binding buffer of cited ref. 28 (composition and pH not given), on ice 30 min; 5% native PAGE, 0.5x TBE, 100 V 50 min
Settings: protein: recombinant; tags: MBP-tag removed by thrombin; HisTrap purification (His tag implied); label: 5'-Cy5; single strand

Chain of hAGO2 (Q9UKV8 whole entry): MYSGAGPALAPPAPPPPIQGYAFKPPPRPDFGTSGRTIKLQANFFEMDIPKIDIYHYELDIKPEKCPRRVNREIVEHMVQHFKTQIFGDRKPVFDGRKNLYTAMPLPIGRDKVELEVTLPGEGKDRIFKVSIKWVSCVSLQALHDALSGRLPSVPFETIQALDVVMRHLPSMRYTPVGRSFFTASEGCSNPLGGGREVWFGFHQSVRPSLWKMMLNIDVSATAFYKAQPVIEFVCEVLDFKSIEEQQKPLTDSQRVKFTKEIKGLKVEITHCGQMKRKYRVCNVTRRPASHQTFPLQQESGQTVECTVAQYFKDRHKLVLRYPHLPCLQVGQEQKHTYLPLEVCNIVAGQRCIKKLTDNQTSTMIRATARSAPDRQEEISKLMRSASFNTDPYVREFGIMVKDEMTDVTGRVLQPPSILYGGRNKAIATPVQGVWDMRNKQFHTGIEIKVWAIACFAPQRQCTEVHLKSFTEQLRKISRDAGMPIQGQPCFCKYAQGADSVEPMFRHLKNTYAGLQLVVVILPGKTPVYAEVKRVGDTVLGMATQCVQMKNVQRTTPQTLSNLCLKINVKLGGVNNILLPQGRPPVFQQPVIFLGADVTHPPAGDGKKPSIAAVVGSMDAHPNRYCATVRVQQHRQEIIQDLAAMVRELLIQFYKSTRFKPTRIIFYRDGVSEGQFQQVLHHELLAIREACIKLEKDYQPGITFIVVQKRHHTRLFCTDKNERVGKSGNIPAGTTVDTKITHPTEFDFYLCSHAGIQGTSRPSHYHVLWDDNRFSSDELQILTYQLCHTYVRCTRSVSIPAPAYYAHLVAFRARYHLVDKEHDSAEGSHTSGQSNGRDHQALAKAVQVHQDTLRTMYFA

AAUGGAUUUUUGGAGCAGG (ssRNA) [5'Cy5-miR-1246]
Kd: 12.2 ± 1.8 nM
